This note sets out measurements from patent US20080299140A1, “Immunogenic Composition and Peptide Sequences for Prevention and Treatment of an Hsv Condition” (priority 2002, published 2008).

A value given as a limit tells only on which side of the number the result lay.

Assay [1] deals with DR11=HLA-DR(α1*0101,α1*1101) (human). Put plainly: HLA class II competition binding assay, biotinylated tracer peptide.
Assay [2] addresses DRB4=HLA-DR(α1*0101,α4*0101) (human). The description is as above.
The target of assay [3] is DR3=HLA-DR(α1*0101,α1*0301) (human). The description is as above.
Assay [4] deals with DRB3=HLA-DR(α1*0101,α3*0101) (human). The assay is described as above.
The target of assay [5] is DR1=HLA-DR(α1*0101,α1*0101) (human). Described as above.
The target of assay [6] is DR13=HLA-DR(α1*0101,α1*1301) (human). The description is as above.
Assay [7] addresses DR4=HLA-DR(α1*0101,α1*0401) (human). Described as above.
Assay [8] has as its target DP401=HLA-DP(α1*0101,α1*0401) (human). Described as above.
The target in assay [9] is DRB5=HLA-DR(α1*0101,α5*0101) (human). Described as above.
The target in assay [10] is DR7=HLA-DR(α1*0101,α1*0701) (human). The assay is described as above.
Assay [11] deals with HLA-DR(α1*0101,α4*0101) (human). Put plainly: competition assay on purified HLA; tracer E2/E168.
Assay [12] has as its target HLA-DR(α1*0101,α3*0101) (human). Put plainly: competition assay on purified HLA; tracer LOL (191-210).
The target in assay [13] is HLA-DR(α1*0101,α1*0301) (human). Put plainly: competition assay on purified HLA; tracer MT (2-16).
The target in assay [14] is HLA-DR(α1*0101,α1*1301) (human). Put plainly: competition assay on purified HLA; tracer B1 (21-36).
Assay [15] has as its target HLA-DR(α1*0101,α1*1101) (human). Put plainly: competition assay on purified HLA; tracer HA (307-319).
The target in assay [16] is HLA-DR(α1*0101,α1*0101) (human). The assay is described as above.
The target in assay [17] is HLA-DR(α1*0101,α5*0101) (human). The description is as above.
In assay [18] the target is HLA-DR(α1*0101,α1*0401) (human). Described as above.
The target of assay [19] is HLA-DR(α1*0101,α1*0701) (human). Put plainly: competition assay on purified HLA; tracer YKL.
Assay [20] concerns the target HLA-DP(α1*0101,α1*0401) (human). Put plainly: competition assay on purified HLA; tracer bOxy 271-287.
The target of assay [21] is DR15=HLA-DR(α1*0101,α1*1501) (human). Put plainly: HLA class II competition binding assay, biotinylated tracer peptide.
For assay [22], the target named is HLA-DR(α1*0101,α1*1501) (human). Put plainly: competition assay on purified HLA; tracer A3 (152-166).
Assay [23] concerns the target DP402=HLA-DR(α1*0101,α1*0402) (human). Put plainly: HLA class II competition binding assay, biotinylated tracer peptide.
In assay [24] the target is DP (α1*0101, α1*0402) (human). Put plainly: competition assay on purified HLA; tracer bOxy 271-287.

As to HSV1 38 (gD176-206) (peptide), the IC50 in assay [1] came to 5 nM; in [2], 1800 nM; in assay [3] it was 1340 nM; in assay [4], 25000 nM; in assay [5], 54 nM; in [6], 200 nM. For the same substance, the IC50 in [7] was 955 nM; in assay [8] it was 91 nM; in [9], 91 nM; in [10] it was 21 nM; in assay [11] it was 1800 nM; in assay [12] it was 25000 nM. Further, the IC50 in assay [13] amounted to 1340 nM; in assay [14] it was 200 nM; in assay [15] it was 5 nM; in assay [16] it was 54 nM; in assay [17], 91 nM; in assay [18], 955 nM. Further, the IC50 in [19] is 21 nM; in assay [20], 91 nM.

For the substance HSV1 34 (gD146-179) (peptide), the IC50 is 175 nM in assay [1]; 743 nM in assay [2]; 10200 nM in [3]; 2020 nM in assay [4]; 40 nM in [5]; over 100000 nM in assay [6]. Also, the IC50 in [7] was found to be 632 nM; in [8], 115 nM; in assay [21], 35 nM; in assay [9] it was 85 nM; in assay [10], 316 nM; in assay [11] it was 743 nM. The IC50 in [12] was 2020 nM; in assay [13], 10200 nM; in [14], over 100000 nM; in [22] it was 35 nM; in [15], 175 nM; in assay [16], 40 nM. Further, the IC50 in assay [17] was 85 nM; in [18], 632 nM; in assay [19], 316 nM; in [20], 115 nM.

For the substance HSV1 8 (gB765-799) (peptide), the IC50 in assay [1] amounted to 4 nM; in [2], 232 nM; in assay [3], 4780 nM; in assay [4] it was 55000 nM; in [5], 2 nM; in [6], 314 nM. Besides, the IC50 in assay [8] is 107 nM; in assay [21], 3 nM; in assay [9], 2 nM; in [10] it was 20 nM; in assay [11] it was 232 nM; in assay [12], 55000 nM. Further, the IC50 turned out to be 4780 nM in assay [13]; 314 nM in assay [14]; 3 nM in assay [22]; 4 nM in assay [15]; 2 nM in assay [16]; 2 nM in assay [17]. Further, the IC50 in assay [19] is 20 nM; in assay [20], 107 nM.

As for HSV1 3 (gB111-140) (peptide), the IC50 was found to be 60 nM in assay [8], 500 nM in assay [14], 30 nM in [22] and 80 nM in assay [20].

As to HSV1 10 (gB80-106) (peptide), the half-maximal inhibitory concentration (IC50) in assay [4] and in assay [12] was over 100000 nM each time.

Regarding HSV1 32 (gD77-104) (peptide), the IC50 in assay [1] was 300 nM; in [3], 2350 nM; in assay [4] it was over 100000 nM; in assay [23], 381 nM; in [8], 1450 nM; in assay [9], 1 nM. The IC50 in assay [10] is 4 nM; in assay [12], over 100000 nM; in assay [13] it was 2350 nM; in assay [15], 300 nM; in assay [17], 1 nM; in assay [19] it was 4 nM. The IC50 in [24] is 381 nM; in [20], 1450 nM.

On to HSV1 2 (gB401-433) (peptide), for which the IC50 is over 100000 nM in [3]; over 100000 nM in assay [4]; under 1 nM in assay [5]; over 100000 nM in assay [6]; 60 nM in assay [21]; 1 nM in assay [10]. Further, the IC50 in assay [12] was over 100000 nM; in assay [13] it was over 100000 nM; in [14] it was over 100000 nM; in assay [22], 60 nM; in assay [16] it was under 1 nM; in assay [19] it was 1 nM.

Consider HSV1 12 (gB568-594) (peptide), for which the IC50 in assay [3], in assay [6], in assay [13] and in [14] was over 100000 nM throughout.

For HSV1 4 (gB424-445) (peptide), the IC50 in assay [3] was over 100000 nM; in [4] it was over 100000 nM; in [5] it was 30 nM; in [12], over 100000 nM; in assay [13], over 100000 nM; in assay [16], 30 nM.

As to HSV1 41 (gD96-123) (peptide), the IC50 is 598 nM in assay [1]; 1670 nM in assay [2]; over 100000 nM in assay [4]; 3 nM in [5]; 4760 nM in assay [6]; 267 nM in assay [8]. Moreover, the IC50 in [21] is 167 nM; in assay [11], 1670 nM; in [12], over 100000 nM; in assay [14], 4760 nM; in assay [22], 167 nM; in assay [15] it was 598 nM. Further, the IC50 was 3 nM in assay [16] and 257 nM in [20].

Turning to HSV1 7 (gB631-661) (peptide), the IC50 in assay [3] was over 100000 nM; in [6], over 100000 nM; in assay [21], 60 nM; in assay [13], over 100000 nM; in assay [14] it was over 100000 nM; in assay [22], 60 nM.

With HSV1 5 (gB173-204) (peptide), the IC50 in [2] and in [11] was 90000 nM in each case.

Regarding HSV1 30 (gD0-28) (peptide), the IC50 in [1] was 648 nM; in assay [2], over 100000 nM; in assay [3] it was 79 nM; in [4], 535 nM; in assay [23], 3800 nM; in assay [6], over 100000 nM. The IC50 in [8] is 17700 nM; in assay [21], 11000 nM; in [9], 7 nM; in assay [10], 374 nM; in assay [11], over 100000 nM; in assay [12], 535 nM. The IC50 in assay [14] was over 100000 nM; in assay [22], 11000 nM; in assay [15] it was 648 nM; in [17], 7 nM; in assay [19] it was 374 nM; in [24], 3800 nM. The substance further had an IC50 in assay [20] of 17900 nM.

HSV1 6 (gB243-282) (peptide): the IC50 was found to be 4000 nM in [3]; 1 nM in assay [5]; 1 nM in [21]; 9 nM in assay [9]; 4000 nM in assay [13]; 1 nM in assay [22]. For the same substance, the results for the IC50 in assay [16] and in assay [17] were 1 nM and 9 nM, respectively.

In the case of HSV1 11 (gB453-483) (peptide), the half-inhibitory concentration (IC50) in assay [3] was over 100000 nM; in assay [4] it was over 100000 nM; in assay [6], over 100000 nM; in assay [10], 30 nM; in assay [12] it was over 100000 nM; in [13], over 100000 nM. In addition, the values for the IC50 in [14] and in [19] were over 100000 nM and 30 nM, respectively.

As to HSV1 14 (gB607-634) (peptide), the IC50 in assay [12] and in assay [13] was over 100000 nM in each case.

With HSV1 1 (gB809-840) (peptide), the IC50 was 13 nM in assay [1]; 43 nM in assay [2]; 995 nM in assay [3]; over 100000 nM in assay [4]; 6 nM in assay [5]; 284 nM in [6]. For the same substance, the IC50 in assay [8] was 1610 nM; in [21], 3 nM; in [9], 6 nM; in [10], 296 nM; in assay [11] it was 43 nM; in [12], over 100000 nM. The IC50 was 995 nM in assay [13]; 284 nM in assay [14]; 3 nM in assay [22]; 13 nM in assay [15]; 6 nM in assay [16]; 6 nM in [17]. Also, the values for the IC50 in assay [19] and in [20] were 296 nM and 1610 nM, respectively.

For HSV1 13 (gB590-612) (peptide), the IC50 in assay [23], in assay [8], in assay [24] and in assay [20] was over 100000 nM each time.
